In the experiment the target is GST-sPol_PR_(D25N) (Glutathione S-Transferase tagged HIV-1 Pol polyprotein with a catalytically dead protease) (HIV-1). Kind of experiment: AlphaScreen or HTRF; titration: GST-sPol_PR_(D25N) constant at 20 nM, WT or D366N Flag-LEDGF/p75 titrated from 50 nM downward (1:2.5 series); glutathione donor and anti-Flag acceptor beads; 25 mM Tris/HCl pH 7.5, 150 mM NaCl, 1 mM DTT, 1 mM MgCl2, 0.1% BSA, 0.1% Tween 20; 1 h at 4°C, then 1 h at 23°C with beads; apparent.

“Flag-LEDGF/p75 WT (lens epithelium-derived growth factor p75) (from UniProt O75475 1-530) (natural protein)”: the Kd was 3.1 nM.

The values are drawn from article PMC4357141.
